The text below walks through data of the DeepSol protein solubility set.

This data set is described as follows: soluble on expression in E. coli; label from the status in PepcDB or PDB records.
As for “MSQKLKVVTIGGGSSYTPELLEGFIKRYHELPVSELWLVDVEGGKPKLDIIFDLCQRMIDNAGVPMKLYKTLDRREALKDADFVTTQLRVGQLPARELDERIPLSHGYLGQETNGAGGLFKGLRTIPVIFDIVKDVEELCPNAWVINFTNPAGMVTEAVYRHTGFKRFIGVCNIPIGMKMFIRDVLMLKDSDDLSIDLFGLNHMVFIKDVLINGKSRFAELLDGVASGQLKASSVKNIFDLPFSEGLIRSLNLLPCSYLLYYFKQKEMLAIEMGEYYKGGARAQVVQKVEKQLFELYKNPELKVKPKELEQRGGAYYSDAACEVINAIYNDKQAEHYVNIPHHGQIDNIPADWAVEMTCKLGRDGATPHPRITHFDDKVMGLIHTIKGFEIAASNAALSGEFNDVLLALNLSPLVHSDRDAELLAREMILAHEKWLPNFADCIAELKKAH”, the “soluble on expression in E. coli” value is “soluble”. In the case of “SLPLQQYRDFIDNQMLLLVAQRDRASRIFPHLYLGSEWNAANLEELQRNRVTHILNMAREIDNFYPERFTYHNVRLWDEESAQLLPHWKETHRFIEAARAQGTHVLVHCKMGVSRSAATVLAYAMKQYECSLEQALRHVQELRPIARPNPGFLRQLQIYQGILTART”, the “soluble on expression in E. coli” value is recorded as “not soluble”. Consider “MPISETWLLPDGVADVLPEQAQVVETLRRQALDFLASRGYQLVYTPFIEYIESLSLLSESNHDLDLVTFKVIDQLSGRLLGVRADMTPQVARIDAHVRSIEGVARYCYAGTVLHTKPQNFNSSRAPLQLGAELYGHQSLEADIEMVDVMLGLIQQAHNLEGLHLDLGHVGLFRSLVKRAGLSKQVEQDLSDLYQRKALPELEEVTKTLAFGSDFYALGRYASDLNALEQHLSQDVLNDASFKTSLDDLKTTLSQIQTRWPNLRIGIDVVELRSYHYHTGLMYAVYAPNRAAPLAQGGRYDGIGEHFGRARPATGFSCDLYALCVGQFKEIETIVAPAGQDQQLLGAIAQARQNGLRVIQLLGNDDLSSVPYATHKMELAQDQWQINKI”, for which the “soluble on expression in E. coli” value is “not soluble”. As to “MSLAAHYLDFERPIADLESKIEELSRLSETAGPGAFDTEIQALRDRAQELRKEAYANLDAWQKTMVARHPQRPHLRDYVAGLIDEFVELRGDRKFADDQAIVGGLGRFRGQPVVVMGHEKGHDTTTRLKHNFGMARPEGYRKAVRLMDMAERFNLPVITFVDTAGAYPGLGAEERGQAEAIARSTERCLTLGVPMVATIVGEGGSGGAIALAGANRVLILEHSIYSVISPEGAASILWRDGARAKDAATQMRITAQDLIKLGIVDRIVEEPAGGAHSDTEAAIQAVGDAVEDELKAMAAMSPAELKKQRSDRFYAIGREGHHHHHH”, the “soluble on expression in E. coli” value is listed as “soluble”. As for “MEGVQEVEIDAPLSGWHPAEGEDASFSQSINYPASSVNMADDQNISAQIRGKIKNYAAAGKVQQGRLVVNGASMPQRIESDGSFARPYIFTEGSNSVQVISPDGQSRQKMQFYSTPGTGTIRARLRLVLSWDTDNTDLDLHVVTPDGEHAWYGNTVLKNSGALDMDVTTGYGPEIFAMPAPVHGRYQVYINYYGGRSETELTTAQLTLITDEGSVNEKQETFIVPMRNAGELTLVKSFDWLEHHHHHH”, the “soluble on expression in E. coli” value was “soluble”. In the case of “MSLTQQITLIKDKILSDNYFTLHNITYDLTRKDGEVIRHKREVYDRGNGATILLYNTKKKTVVLIRQFRVATWVNGNESGQLIESCAGLLDNDEPEVCIRKEAIEETGYEVGEVRKLFELYMSPGGVTELIHFFIAEYSDNQRANAGGGVEDEDIEVLELPFSQALEMIKTGEIRDGKTVLLLNYLQTSHLMDEGGSHHHHHH”, the “soluble on expression in E. coli” value is reported as “soluble”. Next, “MGSDKIHHHHHHMVIIHSKDLVNWTIKGHVVSDLRQISEEMNWTRMNRYGRGIWAGAIRYYQGKFYVYFGTPDEGYFMSTATDPAGPWEPLHCVKAEKGWDDCCPFFDDDGQLYFVGTHFADKYKTYLYRMTPDGKTLIENSKILINEGYGREASKLYKINGTYYHFFSEVKNGGRYIMMQRSSSITGPYLERKQLSHVQREYNEPNQGGLVEGPDRKWYFFTHHGTGDWAGRIASLLPVYWVDGWPIIGEVGQDGIGTMVWQAAKPSNEYPVRTPQSSDDFSKSVLSPQWEWNYQPRDEMWSLTERPGNLRLKAFRPLVTDNLLKAGNTLTQRCFRTNKNEVIVKMNIEGMVDGQKAGLCHYSKSYAMVGVRQSGKDRNLEFQTNKEKITGPAIKGNKVWIKSVWGLDGKSQFSYSTDGRKFTPFGEVYQLEWGYYRGSRIGIYCFNNIADAGYIDVDEFIYLY”: “not soluble”.
